Measurements from IntAct's records for PubMed 30591568.

B1: Poliovirus receptor (Homo sapiens), P15151 (parent)
chain: MARAMAAAWPLLLVALLVLSWPPPGTGDVVVQAPTQVPGFLGDSVTLPCYLQVPNMEVTHVSQLTWARHGESGSMAVFHQTQGPSYSESKRLEFVAARLGAELRNASLRMFGLRVEDEGNYTCLFVTFPQGSRSVDIWLRVLAKPQNTAEVQKVQLTGEPVPMARCVSTGGRPPAQITWHSDLGGMPNTSQVPGFLSGTVTVTSLWILVPSSQVDGKNVTCKVEHESFEKPQLLTVNLTVYYPPEVSISGYDNNWYLGQNEATLTCDARSNPEPTGYNWSTTMGPLPPFAVAQGAQLLIRPVDKPINTTLICNVTNALGARQAELTVQVKEGPPSEHSGISRNAIIFLVLGILVFLILLGIGIYFYWSKCSREVLWHCHLCPSSTEHASASANGHVSYSAVSRENSSSQDPQTEGTR
partner: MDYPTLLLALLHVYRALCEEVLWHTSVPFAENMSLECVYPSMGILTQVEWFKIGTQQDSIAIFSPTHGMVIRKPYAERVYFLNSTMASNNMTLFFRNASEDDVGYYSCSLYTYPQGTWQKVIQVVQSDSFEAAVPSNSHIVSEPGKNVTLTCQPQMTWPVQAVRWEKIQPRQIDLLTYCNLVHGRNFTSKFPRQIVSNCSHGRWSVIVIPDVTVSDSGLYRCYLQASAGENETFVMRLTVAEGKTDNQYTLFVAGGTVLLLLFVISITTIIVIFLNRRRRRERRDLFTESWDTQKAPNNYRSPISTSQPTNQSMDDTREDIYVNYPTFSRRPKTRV
B2: CD226 antigen (Mus musculus), Q8K4F0 (parent)
chain: MAYVTWLLAILHVHKALCEETLWDTTVRLSETMTLECVYPLTHNLTQVEWTKNTGTKTVSIAVYNPNHNMHIESNYLHRVHFLNSTVGFRNMSLSFYNASEADIGIYSCLFHAFPNGPWEKKIKVVWSDSFEIAAPSDSYLSAEPGQDVTLTCQLPRTWPVQQVIWEKVQPHQVDILASCNLSQETRYTSKYLRQTRSNCSQGSMKSILIIPNAMAADSGLYRCRSEAITGKNKSFVIRLIITDGGTNKHFILPIVGGLVSLLLVILIIIIFILYNRKRRRQVRIPLKEPRDKQSKVATNCRSPTSPIQSTDDEKEDIYVNYPTFSRRPKPRL
partner: B1 chain
B3: Poliovirus receptor (Homo sapiens), P15151 (parent)
chain: B1 chain
partner: B2 chain

Variants of: B1
Settings: with cd226_human CD226, Q15762
With Q63R;F128R the “effect of a mutation on the interaction” value was “disrupting interaction strength”.

Variants of: B2
Settings: with pvr_human PVR, P15151
In the case of Q47A, the “effect of a mutation on the interaction” value is reported as “disrupting interaction strength”.
In the case of H68A, the “effect of a mutation on the interaction” value is reported as “decreasing interaction strength”.
For Q47R;E49R;H68S;F114R, the “effect of a mutation on the interaction” value was “disrupting interaction strength”.
For F114A, the “effect of a mutation on the interaction” value was “disrupting interaction strength”.

Variants of: B3
Settings: with cd226_mouse Cd226, Q8K4F0
With Q63R;F128R the “effect of a mutation on the interaction” value was “disrupting interaction strength”.
